This assay concerns the target T1, TNF receptors on the surface of L929 cells (mouse (L929 cells), UniProt P25118 30-454).
T1 construct: whole, on cells; the Methods stain with anti-TNFR1; also called cell surface receptors; TNF cell membrane surface receptors
T1 sequence (looked up): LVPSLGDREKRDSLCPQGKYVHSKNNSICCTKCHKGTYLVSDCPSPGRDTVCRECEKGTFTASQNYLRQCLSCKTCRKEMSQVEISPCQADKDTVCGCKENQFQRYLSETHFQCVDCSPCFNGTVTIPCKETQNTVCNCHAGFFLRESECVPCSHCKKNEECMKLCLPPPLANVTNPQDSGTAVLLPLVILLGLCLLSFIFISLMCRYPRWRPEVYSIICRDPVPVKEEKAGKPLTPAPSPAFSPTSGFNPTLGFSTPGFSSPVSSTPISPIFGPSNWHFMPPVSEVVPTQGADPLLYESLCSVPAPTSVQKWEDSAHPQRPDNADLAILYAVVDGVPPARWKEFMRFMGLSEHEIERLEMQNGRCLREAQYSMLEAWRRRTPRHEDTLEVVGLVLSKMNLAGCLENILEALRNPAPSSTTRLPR
The experiment in a line: confocal microscopy on L929 cells, 244-12 alone.

Description: The cells were fixed with 4% paraformaldehyde (in PBS) for 10 min, blocked in a phosphate-buffer containing 0.5% BSA and 0.1% cold water fish-gelatin for 15min and subsequently incubated with rabbit anti-TNFR1 antibodies (Abcam) for 1 hour. […] PBS-washed specimens were then mounted in Gelvatol/DABCO (Sigma-Aldrich). DNA was counterstained with DAPI (Sigma-Aldrich). All samples were analyzed by fluorescent microscopy using a Nikon Eclipse 80i at 60×. Images were acquired with MS-Elements AR3.0 software using a Hamamatsu camera.

B1: monoclonal antibody 244-12 (antibody, mouse IgG2b, kappa, V domains shown)
VH: QIQLVQSGPELKKPGETVKISCKASGYTFTNYGMNWVKQAPGKGLKWMGWINTYTGEPTYADDFKGRFAFSLETSANTAYLQINNLRNEGMATYFCARHYRYAWFPYWGQGTLVTVSA
VL: DIQMTQSPASLSASVGETVTITCRASGNIHIYLAWYQQKQGKSPQLLVYNAKTLADGVPSRFSGSGSGTQYSLKINSLQPEDFGSYYCQHFWSIPWTFGGGTKLEIKR
notes: also called antibody of the present invention
Turning to B1, the binding result is listed as “no binding”.

The values are drawn from patent publication US20190062417A1 (SHANGHAI JW INFLINHIX, published 2019).
